Measured values taken from US11325966.

What was measured:
Test in all cases: cell-based or functional assay
[1] = biological target: HIV-1 envelope (Env) of pseudovirus 62357_14_D3_4589 (HIV-1)
[2] = biological target: HIV-1 envelope (Env) of pseudovirus YU2_N160K (HIV-1) (UniProt P35961)
[3] = biological target: HIV-1 envelope (Env) of pseudovirus Du422.1 (HIV-1)
[4] = biological target: HIV-1 envelope (Env) of pseudovirus HIV-0013095-2.11 (HIV-1)
[5] = biological target: HIV-1 envelope (Env) of pseudovirus P0402_c2_11 (HIV-1)
[6] = biological target: HIV-1 envelope (Env) of pseudovirus CNE58 (HIV-1)

## BG1 (antibody)
[1]
  IC50 in TZM-bl assay: 0.638 µg/mL
  IC80 in TZM-bl assay: 2.89 µg/mL
[2]
  IC50 in TZM-bl assay: > 30 µg/mL
  IC80 in TZM-bl assay: > 30 µg/mL
[3]
  IC50 in TZM-bl assay: 1.8 µg/mL
  IC80 in TZM-bl assay: 13.7 µg/mL
[4]
  IC50 in TZM-bl assay: > 30 µg/mL
  IC80 in TZM-bl assay: > 30 µg/mL
[5]
  IC50 in TZM-bl assay: > 30 µg/mL
  IC80 in TZM-bl assay: > 30 µg/mL
[6]
  IC50 in TZM-bl assay: > 30 µg/mL
  IC80 in TZM-bl assay: > 30 µg/mL
